This passage reports Kd, koff and kon results from US20210292393A1 (published 2021).

A word on the Kd: it is the constant that tells how readily two partners part at equilibrium. One may read the koff as the first-order rate constant of dissociation. Low readings indicate slow dissociation, high ones fast dissociation. As a reminder, the kon is a measure of how fast the partners come together. A high value points to fast association.

Assay [1] has as its target T1, SARS-CoV-2 spike protein (SARS-CoV-2, UniProt P0DTC2 14-1208).
T1 construct: also called SARS-CoV-2 S protein; antigen of interest
Nature of the assay: HT-SPR, Carterra LSA; mAb coupled to chip, antigen injected; 1:1 fit.

In assay [2] the target is SARS-CoV-2 spike protein (SARS-CoV-2, UniProt P0DTC2 14-1208).

Like-named read-outs stand apart in the source and are kept apart here.

B1: antibody 506 (antibody, V domains shown)
VH: QITLKESGPTLVKPTQTLTLTCTFSGFSLSTSGVGVGWIRQPPGKALEWLALIYWDDDKRYSPSLKSRLTITKDTSKNQVVLTMTNMDPVDTATYYCAHHSLSSIFDYWGQGTLVTVSS
VL: QSALTQPASVSGSPGQSITISCTGTSSDVGDYNYVSWYQQHPGKAPKLMIYEVSNRPSGVSNRFSGSKSGNTASLTISGLQAEDEADYYCSSYTSSSTVFGGGTKLTVLG
In assay [1], B1 returned a Kd of 0.523 nM, a koff of 0.00021 s⁻¹ and an association rate constant (kon) of 401000 M⁻¹ s⁻¹.

B2: antibody 462 (antibody, V domains shown)
VH: QVQLVESGGGVVQPGRSLRLSCAASGFTFSSYGMHWVRQAPGKGLEWVAVIWYDGNNKYYADSVKGRFTISRDNSKNTLYLQMNSLRAEDTAVYYCAKDPTWFGELPSYYYYGMDVWGQGTTVTVSS
VL: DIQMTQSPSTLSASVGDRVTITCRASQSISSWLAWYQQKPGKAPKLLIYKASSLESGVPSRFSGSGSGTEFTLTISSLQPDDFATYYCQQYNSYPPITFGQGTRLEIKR
In assay [2], B2 gave an equilibrium dissociation constant (Kd) of 9.31 nM, a koff of 0.00117 s⁻¹ and a kon of 125000 M⁻¹ s⁻¹.

B3: antibody 481 (antibody, V domains shown)
VH: EVQLVESGGGLIQPGGSLRLSCAASGFTVSSNYMSWVRQAPGKGLEWVSVIYSGGSTFYADSVKGRFTISRDNSKNTLYLQMNSLRAEDTAVYYCAREVAGTYDYWGQGTLVTVSS
VL: DIQMTQSPSSVSASVGDRVTITCRASQGISSWLAWYQQKPGKAPKLLIYAASSLQSGVPSRFSGSGSGTDFTLTISSLQPEDFATYYCQQANSFPGGTFGPGTKVDIKR
For the molecule B3, in assay [2], the dissociation constant (Kd) is 0.273 nM, the off-rate (koff) worked out at 2.96e-05 s⁻¹ and the on-rate constant (kon) is 109000 M⁻¹ s⁻¹.

B4: antibody 502 (antibody, V domains shown)
VH: QVQLVQSGAEVKKPGASVKVSCKASGYTFTSYYMHWVRQAPGQGLEWMGIINPSGGSTSYAQKFQGRVTMTRDTATSTVYMELSSLRSEDTAVYYCARGGGQISMIIVVMDDAFDIWGQGTMVTVSS
VL: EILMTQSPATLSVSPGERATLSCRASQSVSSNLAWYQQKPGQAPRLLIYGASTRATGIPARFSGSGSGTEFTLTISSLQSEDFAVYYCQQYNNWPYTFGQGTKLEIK
In assay [1], B4 showed a Kd of 2.49 nM, a koff of 0.000269 s⁻¹ and a kon of 108000 M⁻¹ s⁻¹.

B5: antibody 468 (antibody, V domains shown)
VH: QVQLVESGGGVVQPGRSLRLSCAASGFTFSIYAMHWVRQAPGKGLEWVAVISYDGSNKYYADSVKGRFTISRDNSKNTLYLQMNSLRAEDTAVYYCAGSLPAGSYYYYYGMDVWGQGTTVTVSS
VL: SYELTQPPSVSVSPGQTARITCSGDALPKQYAYWYQQKPGQAPVLVIYKDSERPSGIPERFSGSSSGTTVTLTISGVQAEDEADYYCQSADNSGTYVLFGGGTKLTVL
For the molecule B5, in assay [2], the dissociation constant Kd was found to be 0.463 nM, the dissociation rate constant (koff) worked out at 3.67e-05 s⁻¹ and the on-rate (kon) is 79200 M⁻¹ s⁻¹.

B6: antibody 465 (antibody, V domains shown)
VH: QITLKESGPTLVKPTQTLTLTCTFSGFSLSTSGVGVGWIRQPPGKALEWLALIYWDDDKHYSPSLKSRLTITKDTSKNQVVLTMTNMDPVDTATYYCAHMYYDILSGYYYGMDVWGQGTTVTVSS
VL: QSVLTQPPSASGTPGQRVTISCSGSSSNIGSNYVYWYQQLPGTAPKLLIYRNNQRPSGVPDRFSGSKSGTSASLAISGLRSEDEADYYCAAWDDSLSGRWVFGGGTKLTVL
B6: in assay [2], binding was characterised by a dissociation constant (Kd) of 6.97 nM, the dissociation rate constant (koff) was 6.06e-05 s⁻¹ and the kon came out at 8700 M⁻¹ s⁻¹.

B7: antibody 489 (antibody, V domains shown)
VH: QVQLVESGGGVVQPGRSLRLSCAASGFTFSSYAMHWVRQAPGKGLEWVAVISYDGSNKYYADSVKGRFTISRDNSKNTLYLQMNSLRAEDTAVYYCARAGSGNYYNWFDPWGQGTLVTVSS
VL: not shown
As to B7, in assay [2], binding was put at a Kd of 0.317 nM, the off-rate constant (koff) stood at 4.85e-05 s⁻¹ and the kon was found to be 153000 M⁻¹ s⁻¹.

B8: antibody 458 (antibody, V domains shown)
VH: QVQLVESGGGVVQPGRSLRLSCAASEFTFATYAMHWVRQAPGKGLEWVALISQDGSNKHYADSVKGRFTISRDNSKNTLYLQMNSLRAEGTAIYYCARESLEAAGPPFDYWGQGTLVTVSS
VL: SYELTQPPSVSVSPGQTATIICSGDKLGEKYASWYQQKPGQSPALVIYQDRKRPSGIPERFSGSNSGNTATLTISGTQAMDEADYYCQAWDSSNSVVFGGGTKLTVP
In assay [2], B8 yielded an equilibrium dissociation constant (Kd) of 0.334 nM, a koff of 8.87e-05 s⁻¹ and an association rate constant (kon) of 266000 M⁻¹ s⁻¹.

B9: antibody 451 (antibody, V domains shown)
VH: EVQLVESGGGLVQPGGSLRLSCAASGFTFSTYWMSWVRQAPGKGLEWVANIKQDGSEKYYVDSVKGRFTISRDNAKNSLYLQMNSLRAEDTAVYYCARLGGSSWYFDYWGQGTLVTVSS
VL: not shown
On to B9, for which, in assay [2], the Kd worked out at 0.429 nM, the dissociation rate constant (koff) was found to be 6.02e-05 s⁻¹ and the kon worked out at 140000 M⁻¹ s⁻¹.

B10: antibody 500 (antibody, V domains shown)
VH: QVQLVESGGGVVQPGRSLRLSCAASGFTFSSYAMHWVRQAPGKGLEWVAVISYDGSNKYYADSVKGRFTISRDNSKNTLYLQMNSLRAEDTAVYYCAKSRDGYKLFDIWGQGTMVTVSS
VL: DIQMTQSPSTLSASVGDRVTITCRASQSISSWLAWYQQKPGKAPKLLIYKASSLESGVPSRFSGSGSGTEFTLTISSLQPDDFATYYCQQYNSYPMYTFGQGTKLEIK
notes: also called mAb 500
In assay [1], B10 had a Kd of 0.43 nM, an off-rate (koff) of 0.000114 s⁻¹ and a kon of 266000 M⁻¹ s⁻¹.

B11: antibody 469 (antibody, V domains shown)
VH: QVQLVESGGGVVQPGRSLRLSCAASGFTFSSYGMHWVRQAPGKGLEWVAVIWYDGSNKYYADSVKGRFTISRDNSKNTLYLQMNSLRAEDTAVYYCARDLLSVGWSFDYWGQGTLVTVSS
VL: not shown
For the molecule B11, in assay [2], the equilibrium dissociation constant (Kd) is 0.133 nM, the koff is 8.39e-05 s⁻¹ and the kon was 630000 M⁻¹ s⁻¹.

B12: antibody 461 (antibody, V domains shown)
VH: EVQLVESGGGLVKPGGSLRLSCAASGFTFSSYSMNWVRQAPGKGLEWVSSISSSSSYIYYADSVKGRFTISRDNAKNSLYLQMNSLRAEDTAVYYCASNPAAGQEAYYYYGMDVWGQGTTVTVSS
VL: not shown
In assay [2], B12 showed a Kd of 3.92 nM, a dissociation rate constant (koff) of 0.000377 s⁻¹ and a kon of 96300 M⁻¹ s⁻¹.

B13: antibody 453 (antibody, V domains shown)
VH: QVQLVESGGGVVQPGRSLRLSCAASGFTFSSYAMYWVRQAPGKGLEWVAVISYDGSNKYYADSVKGRFTISRDNSKNTLYLQMNSLRAEDTAVYYCARDRPHYYGSGRKILNLYGMDVWGQGTTVTVSS
VL: DIQLTQSPSFLSASVGDRVTITCRASQGISSYLAWYQQKPGKAPKLLIYAASTLQSGVPSSFSGSGSGTEFTLTISSLQPEDFATYYCQQLNSYPPFTFGPGTKVDIK
In assay [2], B13 displayed a dissociation constant Kd of 1.61 nM, an off-rate (koff) of 0.000154 s⁻¹ and a kon of 95600 M⁻¹ s⁻¹.

B14: antibody 455 (antibody, V domains shown)
VH: QVQLVQSGAEVKKPGSSVKVSCKASGGTFSSYAISWVRQAPGQGLEWMGRIIPILGIANYAQKFQGRVTITADKSTSTAYMELSSLRSEDTAVYYCARDSIVVPAAIISGYYYYGMDVWGQGTTVTVSS
VL: QSVLTQPPSVSAAPGQKVTISCSGSSSNIGNNYVSWYQQLPGTAPKLLIYDNNKRPSGIPDRFSGSKSGTSATLGITGLQTGDEADYYCGTWDSSLSAGRVFGGGTKLTVL
In assay [2], B14 registered a dissociation constant Kd of 0.866 nM, a koff of 9.23e-05 s⁻¹ and a kon of 107000 M⁻¹ s⁻¹.

B15: antibody 501 (antibody, V domains shown)
VH: QVQLVQSGAEVKKPGASVKVSCKASGYTFTSYYVHWVRQAPGQSLEWMGVISPSTGSTTYAQNFQGRVTMTRDTSTTTVYMELSSLRSEDTAVYYCARDDYYDSTRYFDLWGRGTLVTVSS
VL: QSALTQPASVSGSPGQSISFSCTGTSSDIGAYNYVSWYQQHPGRAPKLMIYDVGNRPSGVSNRFSGSKSGNTASLTISGLQAEDEADYYCSSYTSSSTQVFGTGTKVTVL
In assay [1], B15 gave a dissociation constant (Kd) of 8.78 nM, a koff of 0.000261 s⁻¹ and an on-rate constant (kon) of 29800 M⁻¹ s⁻¹.
